Experimental data taken from patent publication US20200332017A1 (SALUBRIS CHENGDU BIOTECH, published 2020).
Read-outs that look alike come from different tables or passages of the source.

Tests used:
[1] = biological target: T1, human CD40-Fc protein (amino acid residue 21-193 of SEQ ID NO: 67 linked to N-terminus of amino acid residue … (human, biotin-labeled in the capture ELISA and in the benchmark blocking ELISA; unlabeled when coated in the ligand blocking ELISA); assay: capture ELISA; antibody captured, biotin-labeled human CD40-Fc in solution
T1 construct: also called biotin-labeled human CD40-Fc; human CD40-Fc-biotin
Method: (§1) Plates were washed 4 times with wash buffer (PBS+0.05% Tween-20, PBST) and then blocked with 200 μl/well blocking buffer (5% w/v non-fatty milk in PBST) for 2 hours at 37° C. […] After a final wash, plates were incubated with 100 μl/well ELISA substrate TMB (Innoreagents, Cat # TMB-S-002). The reaction was stopped in 15 minutes at 25° C. with 50 μl/well 1M H₂SO₄, and the absorbance was read at 450 nm and plotted against antibody concentration. Data were analyzed using Graphpad Prism software and EC₅₀ values were reported.

[2] = biological target: T1, human CD40-Fc protein (amino acid …); assay: capture ELISA (antibody captured on coated anti-IgG F(ab')2, biotin-labeled human CD40-Fc in solution, streptavidin-HRP, OD(450-630))
Method: as §1

[3] = biological target: T1, human CD40-Fc protein (amino acid …); assay: as above; remark: listed apart in the source
Method: as §1

T1 sequence (chain, as listed by the source): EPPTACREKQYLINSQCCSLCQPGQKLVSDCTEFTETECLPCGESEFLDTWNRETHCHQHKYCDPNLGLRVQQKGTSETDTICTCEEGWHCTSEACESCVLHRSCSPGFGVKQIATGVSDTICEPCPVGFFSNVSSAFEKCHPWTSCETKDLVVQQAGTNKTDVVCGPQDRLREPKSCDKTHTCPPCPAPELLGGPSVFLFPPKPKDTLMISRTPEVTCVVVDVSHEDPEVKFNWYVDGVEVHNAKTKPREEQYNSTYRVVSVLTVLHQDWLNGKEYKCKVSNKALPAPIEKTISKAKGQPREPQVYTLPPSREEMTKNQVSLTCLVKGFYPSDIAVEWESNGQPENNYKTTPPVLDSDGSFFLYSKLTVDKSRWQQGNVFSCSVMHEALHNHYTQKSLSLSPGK

- EC50 [1]: 0.19 nM
- EC50 (read off the curve) [2]: ~0.2 nM
- EC50 (read off the curve) [3]: ~0.02 µg/mL
B1: mouse anti-CD40 monoclonal antibody C1C1 (antibody, V domains shown)
VH: EVKLVESGGGLVKPGASLKLSCAASGFTFSNYGMSWVRQNSDKRLEWVASISSGGDDTYYPDNVKGRCTISRENAKNTLYLEMSSLKTEDTALYYCTRAGGKAMDYWGQGTSVTVST
VL: DIVLTQSPATLSVIPGNSVSLSCRASQSIRDNLHWYQQKSHESPRLLINYASQSISGIPSRFSGSGSGTDFTLTINSVETEDFGIYFCQQFNSWPLTFGGGTKLELK
notes: those are used here for the chimeric antibody only; also called Mouse C1C1; mouse C1C1
